# Data from patent US20260250421A1 (BIOCYTOGEN PHARMACEUTICALS BEIJING, published 2026).
# Numbering of substitutions follows the chain as printed.
# T1: dog PTK7 on dog cancer cell lines (dog, UniProt A0A8I3N574 31-1070)
# T1 construct: whole, on cells; Endogenous protein on dog tumour cell lines; also called PTK7 on CMT-U27 and D-17 cells; dog cancer cells
# T1 sequence: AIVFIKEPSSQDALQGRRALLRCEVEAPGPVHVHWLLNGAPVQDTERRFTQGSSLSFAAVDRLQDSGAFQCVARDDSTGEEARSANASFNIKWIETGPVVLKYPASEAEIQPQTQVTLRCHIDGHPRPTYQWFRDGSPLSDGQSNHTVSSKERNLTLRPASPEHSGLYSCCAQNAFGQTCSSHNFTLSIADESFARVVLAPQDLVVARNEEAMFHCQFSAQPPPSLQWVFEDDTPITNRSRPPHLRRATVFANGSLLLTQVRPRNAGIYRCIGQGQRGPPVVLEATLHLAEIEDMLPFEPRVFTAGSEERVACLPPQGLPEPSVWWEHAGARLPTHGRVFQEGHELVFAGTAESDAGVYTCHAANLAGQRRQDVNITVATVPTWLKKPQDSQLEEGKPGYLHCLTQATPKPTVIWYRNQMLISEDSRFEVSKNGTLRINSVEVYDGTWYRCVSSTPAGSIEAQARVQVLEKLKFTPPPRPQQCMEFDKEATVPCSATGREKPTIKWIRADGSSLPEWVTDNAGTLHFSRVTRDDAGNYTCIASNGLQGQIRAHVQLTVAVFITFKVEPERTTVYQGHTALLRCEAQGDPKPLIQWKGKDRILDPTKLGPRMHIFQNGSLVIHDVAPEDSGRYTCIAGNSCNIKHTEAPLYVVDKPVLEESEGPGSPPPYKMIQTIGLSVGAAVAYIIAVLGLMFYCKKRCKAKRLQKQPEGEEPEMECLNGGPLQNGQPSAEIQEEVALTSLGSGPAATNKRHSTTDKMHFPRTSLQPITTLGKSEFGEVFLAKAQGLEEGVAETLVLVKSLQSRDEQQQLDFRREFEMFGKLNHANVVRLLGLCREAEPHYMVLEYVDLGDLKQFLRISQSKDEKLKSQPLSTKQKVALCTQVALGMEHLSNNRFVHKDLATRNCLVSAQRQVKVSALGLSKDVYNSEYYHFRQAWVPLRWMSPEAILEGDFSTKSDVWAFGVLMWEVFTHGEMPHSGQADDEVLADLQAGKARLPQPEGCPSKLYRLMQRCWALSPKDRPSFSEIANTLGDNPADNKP
# T2: His-tagged dog PTK7 protein (dog, UniProt Q13308 31-703 (human entry))
# T2 construct: also called dPTK7-His
# T2 chain: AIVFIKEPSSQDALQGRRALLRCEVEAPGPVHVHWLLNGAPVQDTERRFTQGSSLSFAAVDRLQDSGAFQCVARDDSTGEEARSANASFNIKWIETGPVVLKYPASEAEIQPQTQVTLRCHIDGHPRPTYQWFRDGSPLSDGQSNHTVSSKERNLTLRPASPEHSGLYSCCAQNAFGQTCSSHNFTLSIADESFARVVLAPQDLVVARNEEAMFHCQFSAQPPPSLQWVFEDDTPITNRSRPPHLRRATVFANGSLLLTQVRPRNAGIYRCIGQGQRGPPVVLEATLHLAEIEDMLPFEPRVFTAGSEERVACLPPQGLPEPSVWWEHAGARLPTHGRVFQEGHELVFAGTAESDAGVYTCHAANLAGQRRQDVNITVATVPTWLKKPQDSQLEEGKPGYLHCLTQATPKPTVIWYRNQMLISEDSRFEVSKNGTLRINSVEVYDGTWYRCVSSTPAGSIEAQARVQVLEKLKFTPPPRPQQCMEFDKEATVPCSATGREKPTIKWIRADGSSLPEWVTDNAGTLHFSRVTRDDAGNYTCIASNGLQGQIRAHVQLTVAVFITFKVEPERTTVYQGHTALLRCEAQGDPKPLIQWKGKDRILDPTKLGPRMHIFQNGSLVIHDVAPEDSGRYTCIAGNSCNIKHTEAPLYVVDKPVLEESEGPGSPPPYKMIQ
# T3: His-tagged cynomolgus monkey PTK7 protein (cynomolgus monkey, UniProt A0A2K5VNI5 39-712)
# T3 construct: Bought protein; also called cPTK7-His; ACRO Biosystems Cat# PT7-C52H3; not shown: His tag
# T3 sequence: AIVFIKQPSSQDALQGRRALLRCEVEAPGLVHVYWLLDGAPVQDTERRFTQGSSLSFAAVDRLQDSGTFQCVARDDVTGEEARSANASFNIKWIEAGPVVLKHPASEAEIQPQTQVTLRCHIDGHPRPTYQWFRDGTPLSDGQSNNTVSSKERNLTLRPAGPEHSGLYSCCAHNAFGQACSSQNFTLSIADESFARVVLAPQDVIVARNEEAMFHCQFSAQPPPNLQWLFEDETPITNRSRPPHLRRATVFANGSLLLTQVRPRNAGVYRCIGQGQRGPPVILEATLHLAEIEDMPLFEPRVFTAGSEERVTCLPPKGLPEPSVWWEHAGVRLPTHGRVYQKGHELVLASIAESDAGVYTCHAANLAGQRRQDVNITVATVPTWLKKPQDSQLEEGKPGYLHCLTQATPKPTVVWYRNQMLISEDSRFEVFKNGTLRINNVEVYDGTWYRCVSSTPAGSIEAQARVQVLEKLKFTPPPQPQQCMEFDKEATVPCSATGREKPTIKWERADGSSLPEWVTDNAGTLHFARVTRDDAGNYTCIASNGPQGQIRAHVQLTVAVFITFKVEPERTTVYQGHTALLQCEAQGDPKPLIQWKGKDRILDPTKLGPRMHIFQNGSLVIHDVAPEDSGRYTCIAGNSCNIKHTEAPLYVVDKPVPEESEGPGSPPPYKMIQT
# B1: 3C4 (antibody, V domains shown)
# VH: QVQLEQSRAEVKKPGESLRISCKGSGYSFTSYWISWVRQMPGKGLEWMGRIDPSDSYTNYNPSFQGHVTISADKSISTAYLQWSSLKASDTAMYYCARRDGSYFDFDYWGQGTLVTVSS
# VL: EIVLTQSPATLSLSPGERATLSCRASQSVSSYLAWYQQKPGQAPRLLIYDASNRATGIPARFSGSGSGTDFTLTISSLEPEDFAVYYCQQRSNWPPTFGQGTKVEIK
# notes: also called anti-PTK7 antibody 3C4
# B2: 3E6 (antibody, V domains shown)
# VH: B1 VH with E5V, Q6E, R8G, K23R, N59K, N61S, S102D
# VL: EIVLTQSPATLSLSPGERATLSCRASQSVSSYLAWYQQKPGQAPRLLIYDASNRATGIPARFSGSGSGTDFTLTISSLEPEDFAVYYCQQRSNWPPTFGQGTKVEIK
# notes: also called anti-PTK7 antibody 3E6
# B3: 1F2 (antibody, V domains shown)
# VH: QVQLVQSGGGLVQPGGSLRLSCAASGFTFSRYEMNWVRQAPGKGLEWVSYINSIGSAINYADSVKGRFTISRDNAKNSLYLQMRSLRAEDTAVYYCVREDNWNPGYWGQGTLVTVSS
# VL: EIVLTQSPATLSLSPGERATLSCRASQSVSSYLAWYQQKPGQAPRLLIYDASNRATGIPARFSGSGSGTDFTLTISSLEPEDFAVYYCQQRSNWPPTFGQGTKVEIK
# notes: also called anti-PTK7 antibody 1F2
# B4: 1A11 (antibody, V domains shown)
# VH: QVQLVQSGPGLVKPSETLSLTCTVSGGSINSYYWNWIRQPPGKGLEWIGYIYYSGSTNYNPSLKSRVTISVDTSKNQFSLKLSSVTAADTAVYYCARDPHDYIRGHFDLWGRGTLFTVSS
# VL: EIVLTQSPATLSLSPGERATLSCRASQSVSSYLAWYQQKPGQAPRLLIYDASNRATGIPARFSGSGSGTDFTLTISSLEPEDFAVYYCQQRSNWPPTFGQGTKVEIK
# notes: also called anti-PTK7 antibody 1A11
# B5: 1A7 (antibody, human IgG1, V domains shown)
# VH: QVQLVESGGGVVQPGRSLRLSCAASGFTFSNYGMHWVRQAPGKGLEWVAVIYYDGSNKFYADSVKGRFTISRDNSKNTLYLQMSSLRAEDTAVYYCARDVAPPGSRAEYFHHWGQGTLVTVSS
# VL: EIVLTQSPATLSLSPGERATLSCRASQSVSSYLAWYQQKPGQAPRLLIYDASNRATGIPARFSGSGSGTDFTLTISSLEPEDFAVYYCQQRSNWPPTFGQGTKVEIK
# notes: also called anti-PTK7 antibody 1A7
# B6: 2F5 (antibody, V domains shown)
# VH: B5 VH with A23V, V50I, F59Y, S84N, P102A, P103A, F110L
# VL: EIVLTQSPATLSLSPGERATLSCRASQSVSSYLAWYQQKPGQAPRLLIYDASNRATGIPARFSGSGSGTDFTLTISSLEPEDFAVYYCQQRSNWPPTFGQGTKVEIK
# notes: also called anti-PTK7 antibody 2F5
# B7: 2A5 (antibody, V domains shown)
# VH: B5 VH with E6Q, Y52W, S56R, F59Y, S84N, P103A, H111Q, H112N
# VL: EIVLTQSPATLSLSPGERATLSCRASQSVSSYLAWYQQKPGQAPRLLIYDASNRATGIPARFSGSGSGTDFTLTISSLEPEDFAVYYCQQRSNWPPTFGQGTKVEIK
# notes: also called anti-PTK7 antibody 2A5
# B8: 2D11 (antibody, V domains shown)
# VH: B5 VH with N31S, Y52F, F59Y, S84N, A92S, P102A, H111Q, H112N
# VL: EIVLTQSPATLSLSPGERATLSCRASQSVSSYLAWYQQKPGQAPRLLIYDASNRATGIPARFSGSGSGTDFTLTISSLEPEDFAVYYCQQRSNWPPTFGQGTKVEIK
# notes: also called anti-PTK7 antibody 2D11
# Biological target: T1, dog PTK7 on dog cancer cell lines
# Test: flow cytometry, D-17 dog cells, Ab 5 ug/mL
# Procedure: The binding activity of anti-PTK7 antibodies to cancer cell lines was verified by flow cytometry. […] Purified anti-PTK7 antibody with a concentration of 5 μg/mL was added to each well and was incubated at 4° C. for 30 minutes. […] The cells were collected, and the mean fluorescence intensity (MFI) was determined. Human IgG1 was used as ISO control.
row,MFI,Binder
1,34600,B1
2,86300,B2
3,64100,B3
4,90600,B4
5,120000,B5
6,131000,B6
7,95900,B7
8,106000,B8

# Biological target: T2, His-tagged dog PTK7 protein
# Test: SPR Biacore 8K, Ab on Protein A chip
# Procedure: (§1) Purified anti-PTK7 antibodies were diluted to 1 μg/mL and then injected into the Biacore™ 8K biosensor at 10 μL/min for about 50 seconds to achieve a desired protein density (e.g., about 50 response units (RU)). The His-tagged PTK7 protein at a concentration of 200 nM or 0 nM was then injected at 30 μL/min for 180 seconds. Dissociation was monitored for 400 seconds. The chip was regenerated after the last injection of each titration with glycine (pH 2.0, 30 μL/min for 30 seconds).
Kd,koff,kon,Binder
8.48 nM,0.00399 s⁻¹,471000 M⁻¹ s⁻¹,B1
11.6 nM,0.00171 s⁻¹,147000 M⁻¹ s⁻¹,B2
21.2 nM,0.00927 s⁻¹,437000 M⁻¹ s⁻¹,B3
14.5 nM,0.00123 s⁻¹,84600 M⁻¹ s⁻¹,B4
2.3 nM,0.000133 s⁻¹,58000 M⁻¹ s⁻¹,B5
11.1 nM,0.000563 s⁻¹,50700 M⁻¹ s⁻¹,B6
3.43 nM,0.000167 s⁻¹,48600 M⁻¹ s⁻¹,B7
0.898 nM,5.47e-05 s⁻¹,60900 M⁻¹ s⁻¹,B8

# Biological target: T3, His-tagged cynomolgus monkey PTK7 …
# Test: SPR Biacore 8K, Ab on Protein A chip
# Procedure: as §1
Kd,koff,kon,Binder
23.2 nM,0.00187 s⁻¹,80600 M⁻¹ s⁻¹,B1
3.95 nM,0.000481 s⁻¹,122000 M⁻¹ s⁻¹,B2
30.2 nM,0.00949 s⁻¹,314000 M⁻¹ s⁻¹,B3
18.4 nM,0.00131 s⁻¹,71200 M⁻¹ s⁻¹,B4
17.9 nM,0.000733 s⁻¹,41100 M⁻¹ s⁻¹,B5
35.2 nM,0.00146 s⁻¹,41600 M⁻¹ s⁻¹,B6
10.8 nM,0.000439 s⁻¹,40700 M⁻¹ s⁻¹,B7
3.08 nM,0.000177 s⁻¹,57400 M⁻¹ s⁻¹,B8
